Results as given in patent publication US12545899B2, “Luciferase enzymes for use with thermostable luciferins in bioluminescent assays” (Promega Corporation, priority 2018, dated 2026).
Changes are numbered by the printed parent chain. Numbers in names are those of the source.

B1: MK0156: SEQ ID NO: 121; H244W+S193A+N228D+L305F+S306P+I109V+C38R+F55I+Y108F+A316W+Y339M+T342S+V348I+C257R+T289S+S313T+K353R (protein)
chain: MADKNILYGPEPFYPLEDGTAGEQMFDALSRYAAIPGRIALTNAHTKENVLYEEILKLSCRLAESFKKYGLKQNDTIAVCSENSLQFFLPVIASLYLGIIVAPVNDKFVERELIHSLGIVKPRIVFCSKNTFQKVLNVKSKLKSIETIIILDLNEDLGGYQCLNNFISQNSDSNLDVKKFKPYSFNRDDQVAAIMFSSGTTGLPKGVMLTHKNIVARFSIAKDPTFGDAINPTSAILTVIPFHWGFGMMTTLGYFTCGFRVVLMHTFEEKLFLQSLQDYKVESALLVPSLMAFLAKSALVEKYDFPHLKEIASGGWPLSKEIGEMVKKRFKLNFVRQGMGLSETTSAILITPRGDAKPGSTGKIVPLHAVKVVDPTTGKILGPNEPGELYFKGPMIMKGYYNNEEATKAIIDNDGWLRSGDIAYYDNDGHFYIVGRRKSLIKYKGYQVAPAEIEGILLQHPYIVDAGVTGIPDEAAGELPAAGVVVQTGKYLNEQIVQDYVASQVSTAKWLRGGVKFLDEIPKGSTGKIDRKVLRQMLEKHTNGHHHHHHHH
B2: MK0158: SEQ ID NO: 123; H244W+S193A+N228D+L305F+S306P+I109V+C38R+F55I+Y108F+A316W+Y339M+T342S+V348I+C257R+T284A+S313T+K353R+D435G (protein)
chain: B1 chain with C257R, A284T, S313T, R353K, W510R
B3: MK0157: SEQ ID NO: 122; H244W+S193A+N228D+L305F+S306P+I109V+C38R+F55I+Y108F+A316W+Y339M+T342S+V348I+T284A+T289S+K353R+D435G+L437R (protein)
chain: B1 chain with C257R, S289T, S313T, R437L

Key:
Format in all cases: biochemical
[1] = Kinetic analysis of thermostable variants with CS0333 (Tables 13, 14); settings: 2 mM ATP
From the text: (§1) Tables 13 and 14 include representative results of kinetic analysis of the thermostable variants with D/L luciferin, CS0333, and CS0280. The panel of enzyme variants highlight amino acid substitutions that further improve upon MK0137 in maximum luminescence (Vmax) or Km in different buffers with the different substrates tested (D/L-luciferin, CS0333, and CS0280). In particular, enzyme variants MK0151 and MK153 show improvements relative to MK0137 across multiple buffers with multiple substrates.

[2] = Luminescence at 1 mM CS0333 (Table 11); settings: 1 mM substrate, 1 mM ATP
From the text: (§2) Tables 10 and 11 include representative results of kinetic analysis of the thermostable variants with D/L luciferin, CS0333, and CS0280. […] MK0135 and MK0137 have amino acid substitutions that improve thermostability relative to MK0133 and MK0134, respectively, while retaining activity on the luciferin analogs CS0333 and CS0280.

[3] = Luminescence at 1 mM CS0280 (Table 11); settings: 1 mM substrate, 1 mM ATP
From the text: as §2

[4] = Kinetic analysis of thermostable variants with CS0280 (Tables 13, 14); settings: 2 mM ATP
From the text: as §1

[5] = Luminescence at 1 mM D/L-luciferin (Table 11); settings: 1 mM substrate, 1 mM ATP
From the text: as §2

[6] = Kinetic analysis of thermostable variants with D/L-luciferin (Tables 13, 14); settings: 2 mM ATP
From the text: as §1

Molecule	Km ([1]; BrightGlo Buffer) [µM]	Vmax (RLU) ([1]; BrightGlo Buffer)	Km ([1]; Detection Reagent Buffer) [µM]	Vmax (RLU) ([1]; Detection Reagent Buffer)	Vmax (RLU) CS0333 BrightGlo Buffer [2]	Vmax (RLU) CS0333 Detection Reagent Buffer [2]	Vmax (RLU) CS0280 BrightGlo Buffer [3]	Vmax (RLU) CS0280 Detection Reagent Buffer [3]	Km ([4]; BrightGlo Buffer) [µM]	Vmax (RLU) ([4]; BrightGlo Buffer)	Km ([4]; Detection Reagent Buffer) [µM]	Vmax (RLU) ([4]; Detection Reagent Buffer)	Vmax (RLU) D/L-luciferin BrightGlo Buffer [5]	Vmax (RLU) D/L-luciferin Detection Reagent Buffer [5]	Km ([6]; BrightGlo Buffer) [µM]	Vmax (RLU) ([6]; BrightGlo Buffer)	Km ([6]; Detection Reagent Buffer) [µM]	Vmax (RLU) ([6]; Detection Reagent Buffer)
B1	7.16	793,473 RLU	116	174,991 RLU	828,634 RLU	377,642 RLU	753,523 RLU	16,392 RLU	9.12	378,264 RLU	1210	21,620 RLU	796,344 RLU	173,238 RLU	0.0613	1,244,361 RLU	0.373	144,242 RLU
B2	14.6	1,546,728 RLU	20.8	524,381 RLU	4,043,790 RLU	1,508,370 RLU	1,523,240 RLU	41,712 RLU	2.94	426,927 RLU	568	39,068 RLU	3,261,120 RLU	1,086,510 RLU	0.109	2,509,334 RLU	0.451	365,701 RLU
B3	4.51	2,835,770 RLU	18.7	515,775 RLU	4,827,260 RLU	3,810,820 RLU	3,598,730 RLU	159,336 RLU	4.49	951,258 RLU	631	87,011 RLU	573,187 RLU	75,012 RLU	0.1	590,903 RLU	0.27	32,485 RLU
